From a protein production outcome set (Wang et al. 2014)

Test: label from the status in PepcDB records

Sequence | protein production
MLFELVILFVILFLFLGYPISKAWDSFQSKKENSSSILKFEPQEILSICLSYFIFGLGIMWNANDVRGGIPLHKFEKNGMMSDQYASLAHDHIAIVVLLVILGAVSYWRLTKGLTKLSPIFYIFYSTLMIVNIVYTFIYITHTGFAFYTELGGLRYIPVFCIQVGMLAFSLLFIAKLRNTLDYFIQSQNEKDYTQSNRIILLLYRISFGYQKMATVWMISLFPVLLIIQFILILFGQKPDSFIRVFMETSSFNYSKIPAPSPQIVSGDGHYLCTVSVKGHKNIVKPLRAGIRHGERITVNRQLLIANAFENVIEERVPKCHKVIRNFYDKYGYPISKHINTKWSADFVYILMKPLEWFFLFVLYTVDKNPENRIHIQYSELRK | failed
MTQDNASGDQVSKQHKAFLRKLYLAHLMDDARHNLLSLGKLTGMPRRTLQDAIASFADIGIEVEFVQDGERHNAGYYRIRTWGPISSAWMDTHVDEVKSLLGVDDAVGQATAGNGA | not failed
GPPSRRSENRVVVSGLPPSGSWQDLKDHMREAGDVCYADVYRDGTGVVEFVRKEDMTYAVRKLDNTKFRSHEGETAYIRVKVDGPRSPSYGRSRSSGPSSG | not failed
MTEQHSHQFERGTDGPKVILVGVDGSDSSLHAAAYAAGLARRQHALLAVVYVQPVMAAGAALGVPVADTTDEIAADLVQYIRDATERVKDIFEVRWEFHTFRGDPYNGLVTAADELKADAVVVGASEQAGHRIVGSVAVRLVKAGRWPVTVVP | not failed
MSYTPMSDLGQQGLFDITRTLLQQPDLASLCEALSQLVKRSALADNAAIVLWQAQTQRASYYASREKDTPIKYEDETVLAHGPVRSILSRPDTLHCSYEEFCETWPQLAAGGLYPKFGHYCLMPLAAGGHIFGGCEFIRYDER | failed
MKRWGLIFPTLYFFFLFIMIFVFNFPREVTRQWMWIQVGGIVFMIALGLYFDGYASLKEVITIGAFTLLWLGLSFTVNIRKEYFTLLGLIIELVLDLALREGG | failed
MGKNIPSSLDLYPIIHNYLQEDDEILDIGCGSGKISLELASLGYSVTGIDINSEAIRLAETAARSPGLNQKTGGKAEFKVENASSLSFHDSSFDFAVMQAFLTSVPDPKERSRIIKEVFRVLKPGAYLYLVEFGQNWHLKLYRKRYLHDFPITKEEGSFLARDPETGETEFIAHHFTEKELVFLLTDCRFEIDYFRVKELETRTGNKILGFVIIAQKLLEHHHHHH | not failed
MMQESGTETKSNGSAIQNGSGGSNHLLECGGLREGRSNGETPAVDIGAADLAHAQQQQQQWHLINHQPSRSPSSWLKRLISSPWELEVLQVPLWGAVAETKMSGPVCQPNPSPF | failed
ADGILVVDLKGNIEFCNQQFLKMWGIAPGFIDSHNDTETIQYVLNQLKNPEEFLKQIKELYNNPKQESFDELHFKDGKIFERYSQPHWLDN | failed
MSEYRTVSAAAMLGTYEDFLELFEKGYEDKESVLKSNILYDVLRNNNDEARYKISMFLINKGADIKSRTKEGTTLFFPLFQGGGNDITGTTELCKIFLEKGADITALYKPYKIVVFKNIFNYFVDENEMIPLYKLIFSQSGLQLLIKDKWGLTALEFVKRCQKPIALKMMEDYIKKYNLKENS | not failed
MMNRILLIFLILMSTCFAGCFEQNNLEKSQEMAEIGFAYIGIDNDKAIEYYEKAIKLNPDDANAISFLGTLYDGEGDREKAYEYLTKALEMEPKNPWMYYNLGLYYLNHDDNMAIGCFEKALRIDPENECCWSQLGYTYYDIGDYTNSKLNFEKAYEINPKDQYSDMIEKCNEGI | failed
MKKKNILFFLLCFLLTSLSAQTLEQARGMYGRGQYAEAKPVFQKYVKSQPANGNYNLWYGVCCLKTGNAAEALKYLETAVKKRIPSGQLYLAQTYNDLYRFQDAVDCYEEYIADLSKRKKPTEEAEQLLEKAKGNLRMLKGVEDVCVIDSFVIDKANFLKAYKISEESGKLFTYNDYFKTKGYHPGTVYETEIGNRIYYSEQGEESLNILSKTKMLDEWSQGKPLPGSINASGNANYPYVLSDGVTIYYASDGDGSMGGYDIFVTRYNTNTDTYLVPENVGMPFNSPYNDYMYVIDEYNNLGWFASDRYQPEDKVCIYVFVPNDSKRTYNYEAMEPEKMIELAQLHSLESTWKDSKIVDDARQRLEAVINHKPAVEQNFDFEFIIDDHSTYHHLTDFKSPKAKQLYLKYEQMEKDYRQQTGKLKSQREGFARSNKDEQSKMAPAIRDLEKRVLQMSEELDKQAIEVRNAEKQNLK | failed
MTKKKAHKPGSATIALNKRARHEYFIEEEFEAGLALQGWEVKSLRAGKANISDSYVLLRDGEAFLFGANITPMAVASTHVVCDPTRTRKLLLNQRELDSLYGRVNREGYTVVALSLYWKNAWCKVKIGVAKGKKQHDKRSDIKEREWQVDKARIMKNAHR | not failed
MIIKFTVVICTYNGAKRLPKVLDELQNQIDTEAISWEILVVDNNSTDSTKQVVQQYQNTCFKPGQLRYSFEPEQGLAIARQHAVTAARGELIGFLDDDNIPSLTWVASAYLFAQNHPCAGAYGSRIQGEFEVPPPDDFKRIAALLALTERGSKKLLYEPKKKVLPPGAGLVVRKQAWLENVPKRCFLQGRVCEPYLPGEDLEALLHIQQAGWDIWYNPEMQITHQIPHWRLKKDYLVDLCRGIGLSRYHTRMLSVKPWQAPVLFWLYIFNDVRKLILHLYKYRGRVKSDLIAACELELFIGSLLSPPYIWKAYIKKYFRKQRPVSFSSSVRCADYTQN | failed
MSNHQKRLSVPNSWPVERKTATFTVKAGAGPHGESGVPLLIVLRDVLGYADNRKEARYALNEDNVLINGKAISDEERPVGMFDILAFTEREEYYRVFPGEGGRLALTAIDPDAAQSKLGKIVTKTHVSGGDVQLGLHDGETLIVEDDQTYDAGDSIVVGNEDGEVVAHFEYEEGALVTAVDGAHAGEVGEVEEIQVTPGSAQNNVIVSQDEGEGFETVEEYVVVIDENFTGDDELEHHHHHH | not failed
MKKIIGLLFIVSCCILLSPTIKVQADTVPLPAPIIEAFPVEAIAEAIAEELDKDSVNDIITQEDLDTITILPFPGLNLTGEDLNVLNNEVFTNATELAIWSNNIGEMPDLSESLPALETIKASDANITQFPNANYPNLTTVDFSKNNFGINIPEFIGMEKLVSINMEQAELSGYIAKDIWMNMPNLETLLLRDNHLISIPEDIFLTGQIRNRSFDGQTATYPPRTIKQGENLDVFVPFIYQALDFIAPAPGNEMIINDNGEFLYKPVYPSYTGSYMYTIETAGLEPGEHLLEISLNYNGSEYLGWYDFPVTITE | failed
MKRIAFVGSVGAGKTTLFNALQGNYTLARKTLAVEFNDKGDIDTPGEYFSHPRWYHALITTLQDVDMLIYVHGANDPESRLPAGLLDIGVSKRQIAVISKTDMPDADVAATRKLLLETGFEEPIFELNSHDPQSVQQLVDYLASLTKQEEAGEKTHHSELEHHHHHH | not failed
MFPILLLAFIFVPIIEIGLFIQVGGFLGLWPTIALVLITAFVGASLVRSQGIQTLMSVQGRLEQGEIPAQQIFEGVMLAVAGVLLLTPGFMTDALGMVVLLPAPRAAIAKYLMSKMVVKTMHGGGFQGGFSNQGPFEQDPFHRDPFDSRSDNGNTFEGEYERKDDDDRNKLN | failed
MTIMLTPMQTEEFRSYLTYTTKHYAEEKVKAGTWLPEDAQLLSKQVFTDLLPRGLETPHHHLWSLKLNEKDIVGWLWIHAEPEHPQQEAFIYDFGLYEPYRGKGYAKQALAALDQAARSMGIRKLSLHVFAHNQTARKLYEQTGFQETDVVMSKKL | not failed
NMRQVLKTDRLVLEPQSMARFDQWFAMERQRDEAGHRDLTEDQAWLRLCARQGMWDAYACGFYYLLDPVSGEMRGEAGFQFRRRGFGPGFDNHPEAAWAVASAHQGRGLAAEAMQALLAHHDRSSGRQRVVALIARSNLPSLRLAERLGFR | failed
MGKGVAFFSGGKDGLYALYLAEEMGIEVPYLLVLKTSIGLSPHWENLDALKTLAKVMEREILTFDMRRGSKALAEFISSLDVDYLIAGDVYLEDHILWVKSLAEEANVKPLEPLWGRNTRKLAEEMLREGFNWAIIAVDKRKLGKEWLGYTFRSIEDLENFLRANPNVDPLGEVGEFHTVVLNSPLFALNFELKVESIEEDERYWWLRFELREVEKWNLNS | failed
MEIKSILIANRGEIALRALRTIKEMGKKAICVYSEADKDALYLKYADASICIGKARSSESYLNIPAIIAAAEIAEADAIFPGYGFLSENQNFVEICAKHNIKFIGPSVEAMNLMSDKSKAKQVMQRAGVPVIPGSDGALAGAEAAKKLAKEIGYPVILKAAAGGGGRGMRVVENEKDLEKAYWSAESEAMTAFGDGTMYMEKYIQNPRHIEVQVIGDSFGNVIHVGERDCSMQRRHQKLIEESPAILLDEKTRTRLHETAIKAAKAIGYEGAGTFEFLVDKNLDFYFIEMNTRLQVEHCVSEMVSGIDIIEQMIKVAEGYALPSQESIKLNGHSIECRITAEDSKTFLPSPGKITKYIPPAGRNVRMESHCYQDYSVPAYYDSMIGKLVVWAEDRNKAIAKMKVALDELLISGIKTTKDFHLSMMENPDFINNNYDTNYLARH | not failed
DELEAAAESLEDGSLILEGSTDIRHVSLLLNRDLVDESEEYSTLSGYILFHLGRLPENGQKMHADGYIFEVVTMDGHKIEKVHIVADP | failed
MEKSLLVIVRHKPGRTRLLIRALQSINDQTFKKINIIIFCMEEELKCHNVDDFYLKELSNIYSVIYDENCIFNAIKMSESNYLCFMDDDDSWAPEYVSRLLSVLANIQSTYSSVNAIACHTNKVAEIAENNRIIINSTQPWNHYLNAGPVSFDVIYYRNSIPLSSCLFDRNSVIDVIESHKLSSPAFFWPFFIHYLAENDVWILPEALAFYHFRENDDFEFGNYTVINNELFDIECKIAENKMMRSIDDSSLLNVLLSNIANNSLFHKISYIENKIK | failed
MTNGKNPKEYSRQYVDEIAERADVVGYAPAIEYSFDRYTNNPVHEKIATIHDGEKLGDDAHVEVVVVDFFKKSDKGDKCYATKRTYAVIPDSDGDGTDALVYSGSLKSVSDIEEGYVTETDFTSKTVTYAKGDYAATELEHHHHHH | failed
MGSSMEEKVVAVIMVGGPTKGTRFRPLSLNIPKPLFPIAGQPMVHHPISACKRIPNLAQIYLVGFYEEREFALYVSAISNELKVPVRYLREDKPHGSAGGLYHFRNLIMEDSPSHIFLLNCDVCCSFPLPKMLEAHRGYGGIGTLLVIKVSPESASQFGELVADPVTNELLHYTEKPETFVSDRINCGVYVFTPEIFNAIGDVSTQRKDRATLKRVSSFEALQPATRIPTDFVRLDQDILSPLAGKKRLYTYETMDFWEQIKSPGMSLRCSGLYLSQFRLTSPQLLASGDGTRSAIVIGDVYIHPSAKVHPTAKIGPNVSISANARVGPGVRLMSCIILDDVEIMENAVVTNAIVGWKSSIGRWSRVQAEGVYNSKLGVTILGDSVAVEDEVVVTSSIVLPNKTLNVSVQDEIIL | failed
MKYKLLVLDVDGTLLNDEKEITPRTLATLLKVQQMGVHIVLASGRPTYGILPLAKKLELGNYGGYILSYNGAQVINAKNGEVLLERRINPEMLPYLEKKARKNGFAIFTYTEDRMIADQADNEHILQEAFLNRMELIEEPEFSVAVDFAPSKCMLVSDDEEALIGLEEHWKKRLNGALDVFRSEPYFLEVLPCGIDKSTSLGALLSHLDITPEEIIVIGDGVCDVSMIQFAGLGIAMGNAQDSVKVCADVVTASNEEDGVALAVEKAILSEIRPAEIPLDQLNERARHALMGNLGIQYTYASEDRVEATMPVDERTRQPFGILHGGATLALAETVAGLGSMILCQPDEIVVGMQVSGNHMSSAHEGDTVRAVGTIIHKGRSSHVWNVDVFTSTDKLVSSIRVVNSILKKR | failed
